Experimental data taken from publication doi:10.1101/2022.05.13.491168.

How the values were obtained:
[1] = molecular target: CvkR (Cas V-K repressor, Alr3614) of Anabaena (Nostoc) sp. PCC 7120 (Anabaena (Nostoc) sp. PCC 7120); assay: SEC
[2] = molecular target: CvkR (Alr3614) (Anabaena (Nostoc) sp. PCC 7120, UniProt A0ACD6B984 19-168); assay: EMSA

| stoichiometry N [1] | Molecule | binding result [2] |
| --- | --- | --- |
| 2 | CvkR (Cas V-K repressor, Alr3614) of Anabaena (Nostoc) sp. PCC 7120 (natural protein) | – |
| – | Pcas12k (P82) (dsDNA) DNA 1: AAGAAACATCCTATAGAAGCATCTTCTAAAACACATTAGTGCTTTGTATAACATTATGTGTTTTGTATGGTATTTTATTTTT DNA 2: AAAAATAAAATACCATACAAAACACATAATGTTATACAAAGCACTAATGTGTTTTAGAAGATGCTTCTATAGGATGTTTCTT | binds |
